Measured values reported in US20020137126A1 (Genentech, published 2002).

Experiments:
[1] = target: T1, REK7, endogenous, on rat embryonic (E16) cortical neurons (rat, UniProt P54757 27-1005 at identity 0.97)); assay: cell-based or functional assay
T1 chain: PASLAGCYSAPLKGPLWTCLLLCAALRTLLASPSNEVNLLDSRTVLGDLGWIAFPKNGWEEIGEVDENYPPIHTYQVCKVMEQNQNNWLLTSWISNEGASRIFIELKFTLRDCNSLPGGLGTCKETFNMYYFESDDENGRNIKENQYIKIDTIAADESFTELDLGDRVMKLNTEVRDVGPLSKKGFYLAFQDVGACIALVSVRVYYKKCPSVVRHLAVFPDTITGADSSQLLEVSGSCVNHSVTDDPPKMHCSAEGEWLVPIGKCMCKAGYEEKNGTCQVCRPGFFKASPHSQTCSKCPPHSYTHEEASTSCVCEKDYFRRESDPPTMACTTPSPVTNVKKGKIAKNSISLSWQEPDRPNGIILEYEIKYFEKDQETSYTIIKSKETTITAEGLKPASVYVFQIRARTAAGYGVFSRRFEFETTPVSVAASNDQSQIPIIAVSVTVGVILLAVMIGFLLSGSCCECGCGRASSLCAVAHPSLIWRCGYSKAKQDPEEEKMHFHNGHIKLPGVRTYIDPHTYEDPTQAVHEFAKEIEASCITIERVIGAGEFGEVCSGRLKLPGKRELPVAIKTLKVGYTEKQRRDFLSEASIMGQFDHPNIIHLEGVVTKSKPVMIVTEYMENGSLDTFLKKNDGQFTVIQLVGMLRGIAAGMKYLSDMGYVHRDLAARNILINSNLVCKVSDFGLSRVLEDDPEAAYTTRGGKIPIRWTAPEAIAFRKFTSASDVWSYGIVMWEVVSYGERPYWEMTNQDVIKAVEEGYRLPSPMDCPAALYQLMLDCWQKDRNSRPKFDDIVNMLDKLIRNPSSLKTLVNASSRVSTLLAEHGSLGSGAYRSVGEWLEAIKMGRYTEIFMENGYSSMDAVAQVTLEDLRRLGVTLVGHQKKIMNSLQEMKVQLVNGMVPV

CD4-IgG = CD4-IgG (human, UniProt P01730 26-205); assay: immunoaffinity chromatography of BT20 conditioned medium on CD4-IgG-Protein A precolumn; SDS-PAGE, silver stain
Description: 200 ml of BT20 conditioned media, concentrated as described above from 12 liters and frozen, was thawed, centrifuged at 17,000 rpm in a Sorvall SS34 rotor, and filtered through a 0.45 μm filter to clarify the solution. The 200 ml was pumped through a 2.0 ml CD4-IgG—Protein A (CD4-IgG covalently linked to Protein A through IgG moiety) immunoaffinity precolumn and a 1.0 ml REK7-IgG - Protein A (REK7-IgG covalently linked to Protein A through IgG moiety) immunoaffinity column in tandem with a flow rate of 0.5 ml/min. All chromatography was carried out at 4° C. Following one complete passage of the media through both columns, the flow rate was reduced to 0.2 ml/min, and the media was recycled through both columns. Following the loading of the REK7-IgG column, the two column were separated from each other, washed with 10 column volumes of PBS, and then eluted with four separate washes of 100 mM sodium citrate, pH 3.0 (2 ml each for the CD4-IgG column and 1 ml each for the REK7-IgG column). The first two washes were allowed to immediately flow through the column whereas the last two were incubated for 15 minutes before collection. The eluates were brought to pH 7.4 by the addition of 50 mM potassium phosphate, and an aliquot of each was analyzed by sodium dodecycl sulfate (SDS)-polyacrylamide gel electrophoresis (PAGE). […]

B1: soluble AL-1 (purified, secreted form without the GPI membrane anchor) (ligand)
chain: QDPGSKAVADRYAVYWNSSNPRFQRGDYHIDVCINDYLDVFCPHYEDSVPEDKTERYVLYMVNFDGYSACDHTSKGFKRWECNRPHSPNGPLKFSEKFQLFTPFSLGFEFRPGREYFYISSAIPDNGRRSCLKLKVFVRPTNSCMKTIGVHDRVFDVNDKVENSLEPADDTVHESAEPSRGEN
notes: also called purified soluble AL-1; REK7 ligand from BT20 conditioned medium
With B1 the “tyrosine autophosphorylation of REK7 (immunoprecipitation with anti-REK7, anti-phosphotyrosine immunoblot)” value [1] was about 2 fold and the binding result (CD4-IgG) was “no binding”.
